# Measured values as given in article PMC9637222 (2022).
# T1: SipC (tag-free, purified) (S. Typhimurium, UniProt P0CL47 1-409)
# T1 chain: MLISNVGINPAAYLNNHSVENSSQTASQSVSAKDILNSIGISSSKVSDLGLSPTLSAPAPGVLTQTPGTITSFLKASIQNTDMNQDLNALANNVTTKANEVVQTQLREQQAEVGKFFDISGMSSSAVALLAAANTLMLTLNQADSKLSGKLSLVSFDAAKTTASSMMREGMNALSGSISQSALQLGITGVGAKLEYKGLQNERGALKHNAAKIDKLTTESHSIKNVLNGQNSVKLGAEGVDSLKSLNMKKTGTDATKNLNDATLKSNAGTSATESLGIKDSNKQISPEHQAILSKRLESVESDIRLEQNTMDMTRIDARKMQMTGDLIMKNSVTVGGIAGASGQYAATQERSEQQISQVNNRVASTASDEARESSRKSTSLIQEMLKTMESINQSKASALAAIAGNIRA
# T2: InvF (tag-free, purified) (S. Typhimurium, UniProt P69343 1-216)
# T2 chain: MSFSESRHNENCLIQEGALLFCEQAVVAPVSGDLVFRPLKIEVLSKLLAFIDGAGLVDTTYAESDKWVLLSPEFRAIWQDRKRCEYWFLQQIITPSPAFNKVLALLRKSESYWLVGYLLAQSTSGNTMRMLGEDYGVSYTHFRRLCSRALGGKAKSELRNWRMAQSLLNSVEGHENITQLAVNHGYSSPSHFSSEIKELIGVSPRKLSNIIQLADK
# T3: SipB (tag-free, purified) (S. Typhimurium, UniProt Q56019 1-593)
# T3 chain: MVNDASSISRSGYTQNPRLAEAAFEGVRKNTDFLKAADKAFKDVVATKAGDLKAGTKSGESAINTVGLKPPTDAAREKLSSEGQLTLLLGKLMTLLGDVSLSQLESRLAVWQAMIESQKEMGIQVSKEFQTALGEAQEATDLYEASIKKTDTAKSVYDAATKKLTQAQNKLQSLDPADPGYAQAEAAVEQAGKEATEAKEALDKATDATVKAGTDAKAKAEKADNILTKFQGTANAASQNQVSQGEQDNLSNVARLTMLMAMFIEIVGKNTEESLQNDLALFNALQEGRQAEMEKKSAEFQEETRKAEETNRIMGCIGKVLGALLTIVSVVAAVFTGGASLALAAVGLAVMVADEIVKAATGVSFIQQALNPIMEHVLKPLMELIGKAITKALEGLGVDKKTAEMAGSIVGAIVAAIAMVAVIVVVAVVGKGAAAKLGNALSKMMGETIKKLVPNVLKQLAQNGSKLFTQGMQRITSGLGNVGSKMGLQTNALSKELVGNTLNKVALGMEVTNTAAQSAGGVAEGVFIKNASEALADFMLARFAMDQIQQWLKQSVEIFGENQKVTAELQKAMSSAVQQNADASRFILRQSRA
# B1: SicA (tag-free, purified) (natural protein)
# chain: MDYQNNVSEERVAEMIWDAVSEGATLKDVHGIPQDMMDGLYAHAYEFYNQGRLDEAETFFRFLCIYDFYNPDYTMGLAAVCQLKKQFQKACDLYAVAFTLLKNDYRPVFFTGQCQLLMRKAAKARQCFELVNERTEDESLRAKALVYLEALKTAETEQHSEQEKE
# Columns and labels:
# Test in all cases: ITC
# [1] = target: T1, SipC (tag-free, purified)
# [2] = target: T2, InvF (tag-free, purified)
# [3] = target: T3, SipB (tag-free, purified)
binder,measurement,setting,value
B1,Kd,[1],610 nM
same,Kd,[2],460 nM
same,Kd,[3],530 nM
